Measured values as given in CN113521276A (JIANGSU QUANXIN BIOMEDICAL CO LTD, dated 2021).

Biological target: T1, 人干扰素α受体1(IFNAR1) (human, UniProt P17181 28-436)
T1 construct: Soluble antigen run over captured antibody in the Biacore assay; also called 人IFNAR1; Human Interferon alpha/beta Receptor 1
T1 sequence: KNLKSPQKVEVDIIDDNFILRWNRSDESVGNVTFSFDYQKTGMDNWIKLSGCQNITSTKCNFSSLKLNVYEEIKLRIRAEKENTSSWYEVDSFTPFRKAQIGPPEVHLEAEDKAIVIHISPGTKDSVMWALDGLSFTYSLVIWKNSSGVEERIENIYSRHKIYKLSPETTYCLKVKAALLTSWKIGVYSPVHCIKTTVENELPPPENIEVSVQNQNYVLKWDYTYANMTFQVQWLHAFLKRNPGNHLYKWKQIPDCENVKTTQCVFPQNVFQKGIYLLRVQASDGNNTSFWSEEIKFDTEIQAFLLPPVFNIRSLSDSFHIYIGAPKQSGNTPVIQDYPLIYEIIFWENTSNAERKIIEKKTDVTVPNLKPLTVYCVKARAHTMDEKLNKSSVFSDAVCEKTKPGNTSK
Test: SPR, Biacore T200, antibody captured on Protein A chip, antigen in solution, 25℃, 1:1 model, mean of three runs

Kd: 108 pM
koff: 3.76e-05 s⁻¹
kon: 347000 M⁻¹ s⁻¹
B1: QX006N(HZD1203-45-IgG4.1) (antibody, V domains shown)
VH: EVQLVESGGGLVQPGGSLRLSCAASGFSLSSYYMTWVRQAPGKGLEWVSVINVYGGTYYASWAKGRFTISRDNSKNTLYLQMNSLRAEDTAVYYCAREDVAVYMAIDLWGQGTLVTVSS
VL: AIQMTQSPSSLSASVGDRVTITCQASQSISNQLSWYQQKPGKAPKLLIYDASSLASGVPSRFSGSRSGTKFTLTISSLQPEDFATYYCLGIYGDGADDGIAFGGGTKVEIK
notes: Humanised rabbit antibody from clone 1203#; also called 抗人干扰素α受体1(IFNAR1)单克隆抗体
